Literature values, collected in paper PMC9965408.
pKi: −log10 of the molar value.

Target: plasmin (Homo sapiens) (UniProt P00747)
UniProt P00747, sequence (P00747 581-810): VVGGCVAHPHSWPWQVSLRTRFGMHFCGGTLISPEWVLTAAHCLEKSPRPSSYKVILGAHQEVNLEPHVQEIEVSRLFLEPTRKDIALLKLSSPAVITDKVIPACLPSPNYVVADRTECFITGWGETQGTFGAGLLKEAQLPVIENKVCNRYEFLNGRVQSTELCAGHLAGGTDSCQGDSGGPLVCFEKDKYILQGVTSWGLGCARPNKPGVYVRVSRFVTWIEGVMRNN

Substance: AaTI (from UniProt Q177W0)
- pKi: 5.15
